Data published in the domain aggregation screens of Martell et al. (2025).

test: soluble fraction after stress (log2 fold change); higher = more stays soluble; pooled small domains, quantitative proteomics; conditions: stress: 50 degC
Procedure, shortened: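 Quantitative proteomics served as the high-throughput read-out for pooled custom libraries of small protein domains. Each was stressed at 50°C. Aggregation propensity is expressed as the base-two log fold change in soluble protein after stress. A higher value means a larger share of the protein remains in solution.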

Sequence	soluble fraction (log2)
HMLKDQSIAQLEKNLDDLKGLMRKMFGSSDVPKITKMISDIESSLANFNQSKANKLIVQTTNYISSKL	-0.36
HMHVYQSLVTDRVVPGGGYRTTEAILSTEAWRNTLLEQAKRELIGVRNKYASLTELAKVWTAIDTVT	-0.586
HMVAGHLQEKKGYFYMVLTYRDHEGKRKSKWLPTGLTIKGNKKRAQDLLQDARKNFVPDIPT	-1.32
HMTKDVIEIVDGNKFVFHKTIATDSVSSVINKYHISEADFRTWNELTGDMKVGEEYIVQLSLH	-1.26
HMNPDTERIREFVAVSLKNRKVATSGEIQNMIVKQFKNFKLKSHGYSNMKSFLSSIDKIQLNSNGKYSLK	-0.355
HMQMSERENTILLTKRYIERGEYERAMNLLDSLLIKNALDEEALAMIDEIIALKAGASLQDFPRY	-0.684
HMSTGGDLTQRERELLGLMARGLSNQEISKRLTIAMPTVKFHVTNILAKLHADNRTEAVLVALKNKLVAL	-0.748
HMQAQQYYMLLMNKATSALKIEALGANSNKAHQSFGTKTAGGSAVYWGILFNSNGKIYKIVG	-2.96
HMASLSITVNGETRRAAPGSIADLVRAIGLDPAKVAVERNGEIAPRSTLADVALADGDVLEIVHFVG	-0.0709
HMTAQGDSSDAVQRAITEILRHEDPSHPFSDQQLVIKLRTMDISVSRRTVTKYRKLLHIPSSTHRK	-2.74
HMEVVVPEDLDAALQQASRAQSFFSSLSYTHKKEYVAWINEAKRAETRAMRIQKTITMLESGQRGH	-1.14
HMPDLSMLDEVLDEYRSQAGSLVTVLQKAQDLYGYLPLTILRHIAEEMNIKPAQVYGVATFYTQFRL	-0.0547
HMGALAITPDFVGQTREEAERFLRDLDLSFDIGGKGDRILRQEPVAGQRMNLDQPMKLWVGSMNA	0.0609
HMSSKAVLEKFEALFIDQMLQSMRKATVRSELFDSEGIKLYESLFDKEISEELAKSGGLGLTKDLEQQL	-0.888
HMFNGDPTTRESILASARAEIDQYGIIGLRLSAVAEKAQVSVPLIYKYFEDRDGLLAVVLGDW	-1.27
HMLDNHPQSKKIRALWLEMAAAGVVRDSSEQALALWVKRETGISALRWLSNEQASSVIEKLKKWQRRAAG	-0.687
HMVLSKGAKELLDFIMREGEVTTSKVVQKFGGSAQNASAKLKKLYATGLILGSKAVAESGGLEFVYKA	0.393
HMVVTMEKIVVNDGGIRIDTYLADKLNISRSKVAKMLENNILVNNVKVKPSYKVTNNDIIEVEEYV	-0.936
HMRIEDTMDYINKIKEKLKNNGGVITSKEFTRSNIPTIYLTRMVETGELIRIDRGIYINSSG	-0.538
HMSGEPVKSTLPGNVFKILVAVGDSVKKGQRMFVLEAMKMEIDVNAPKDGLVTSIEVQQGQTVANGQILAK	0.0741
HMKLTKPQEVFIQELLKGSSQYEAYLKAYPSKKTWKRNSIDTEASKLFKNAKIKQRYEELLYNIREE	-0.167
HMGSEEMLGALGVVERATDDGDWWIAVHGEHWRARSAQALVPGDRVRVARIDGLTLTVTPIA	-0.0957
HMNPNSIDEKLKLLSNREKEVAILVLKKLSYFEISEQLNITIRTVKAHTKNIYEKFNVSNRLAFLLLFN	-0.225
HMTGIQLNDRERAILQHLSDGLTTKAIAERIFLREDTVKWYRKNLLARFEQPIVAALVKWAVLEGLV	0.141
HMSKQLGFKIKTARRKLNISQGDLSKKLEISPSYLNLIESGKRKVSTDLLMKASEILNLDLKKL	-0.281

Sequence	soluble fraction (log2)
HMKNLADNIVALRKKHGLSQEQFAEKIDVTRQAVSNWERRIATPDVETIDLIAKLFDTDLTALVNG	-0.0311
HMRHTRQRQAVLDALVRSGQALSPQDLLGQAKSAVPSLNLSTVYRQIKGLQDAGQIVRVELPGQPPRFEM	-0.107
HMEILTRQLTHYLHLLPPAQQEVVRGVYLQDQTLQEIADRVQIPLGTVKSRLRLGLSKLREQIEQEHE	-0.916
HMEIRNLMPILSHFLNENDIKLSRESVNLVLDRASGNRENLNNELKKIHDYSFSNKIIDFETIKKLTNLG	-0.194
HMAQTSAELIIEYLKRNDGFMELTDKSPADEIYETFGISKKNFKMAVGSLYKNRVIEIGQNGIRLVE	-0.216
HMISSKDIINDEDGARLGKIADVEIDVATGKILSVHVYRSFKLLHLFGNKDVVQIPWNKIMKIGSDVVIVE	-0.0123
HMRNDIFDQLTEREMQILQEVAKGYRNKQIADHLFISESTVKVHMKSLLKKLQVPSRTAATVLYLERYG	-1.66
HMNMEYQKAINHIVQMVKDGQLIVGSKIPSERDLSESLGIGRNSTREAISILRGMGLVESRHGSGNYIAKD	-0.148
HMLEKVLDNHIHKLRLQHKISQQELADAIGVSRKTISTVETGRFTPSVVIALKIAAHFSVSVEQVFTL	-0.964
HMASAKTVAQSGTYKFAKTTAIKSSASDAASTVGTYYKGNTVNYNAKVTTNGQTWLRYTSYSGAQYYVKVS	-3.18
HMASENISYSQFINQVKNSMVESVSIEADGKTISGKYKSGSSFVTYGLNDPKLVDDLLSNNVEIL	0.159
HMPSQEQSDKNAAMAFLPVIVKNALNGKGLKISDDWKAAVNTALAQYPLVNKFFNADSPEVTELVMGL	-0.0489
HMGSRRFGDSNHAAKLTEEQVVEIRELAAAGATTKFLAEMVGMHPNYVGLILRGLSWPEAGGPLRVA	0.11
HMGEWHQMLRSWGETELKNGRQNILDEAVPAFERAMIETALAHTSGRKKDAALLLGWGRNTLTRKLQEHSI	-0.0702
HMYSSIIGIAFTRAENKPAAPTGGSYSNPHPVDGNWKAAPYDGDGNLWYSIRHFNENVDIQDREWSDPTLG	-0.24
HMETYEFNITDKEQTGMRVDKLLPELNSDWSRNQIQDWIKAGLVVANDKVVKSNYKVKLNDHIVVTEKEV	0.26
HMRQPRGQRVTVREASSLLPFLFAHLTDRSRSAVKSLLRHGQIWVNGRVTTHFDMPLRPGDTVLISHERG	-0.347
HMGKAMIDWEREQSILRILLRQKALTTEQAREVYQDGMREDLSALEMGVQRGYFTHEQLREATGGE	0.0179
HMGSVDMVYGDHKINSEHMDLSFKNQTAVLYDKVNYKSSLSMLSADKILVNFLNKYTKIEMNDENNNILIQ	0.059
HMSDFKDIILKLRNEQGFTQEKLADVLGTSKSTVGMWEMGVRFPSKELYEAIADYFNVDIDYLYGRTDIR	-0.966
HMLGSGSKEQQLVILNNILERQVQAFNLQGGQEYPMVTLKNFYNTLSKMIENAGLKNVENYFVNPDVGKQM	-0.302
HMLPVQGEEVAPGLYKFDFPFLADKRVWEKTINAFKAEHPELKVNYIYTGPDELNSKKKTHVLVYVFTES	-0.0974
HMDVLSQYGSRGEEVGKIQTRLKSWGYFSGEVTGYYGSQTTEAVKRFQQKHGLSATGVADRKTLELIGIS	-0.108
HMDSTLTNEIYNELYRAITHQELKPGQNLTLTMLKKQFNVSHTPIREALTRLSADGLVTYHPNKGMKVT	-0.274
HMNVWGLSERELEATRLLIEGFSSKEASARMGISPSTVRSLWGRARAKMGVDSIEDARELVA	-0.236

Sequence	soluble fraction (log2)
HMGKFMVQVGAFSRINGAEITRTKYDNLGTHKAIIKNLDGMNRVFLTGFLSEDEARDFIASSNLKGAFIIR	-1.66
HMDVQNLTKKNQEFINIVTHQLLQSGKSDEDIQTILAKTLPEIIEKQKQGIPARSFLGAPTAWAAQFI	0.133
HMGSEISYSEFLNRVEQGQVAAVRLDGEQIFITGPTGEAYQTIQPRNTDVLPDLREAGVEIQAAPQ	-0.0723
HMKYYIYQGVGASGELTKIAEVTDQKTYTVTGLQAKTTYRFAVSSYNGLRESTKSNIVTVTT	-0.313
HMKVKEYKLVDWISTFTKNEGYGISQKAAMLLAEFLGDDLSRIANEIEKLKLLVEKGTTINDVHIEENI	-0.797
HMADLIVFTTDANKEKKVDDETYFYLDVVSDGKLVENYELTEKQYNYIKDLGVGEYVYNEKGKLDSYTAFT	-0.00687
HMVTDTGAIEKVIDEVIAANPKQVQEIADQRAAGHEKPKTLGWLVGQIMKASGGKVNPAAVNEILLKKLG	0.149
HMNRIFQERVVPAELDTLRADKVAASLFSDFSRNELAHWIKMGDLSINGGVKKAKDKLFEGDVLILDVEIV	-0.798
HMSRMLTVKQREVFDLAMREGYWETPRRITLTMLASLLSVSKSTLSVQLHKIEGTVLSSFSDEVRRRS	-1.49
HMQASIPQSQKDALAKELQALPPHGRNRVLSTFRQQFNISSEKISEFITTPEHLSFIRSKIAEVESDS	0.0722
HMYMWQVEDLLRANELDIENIKKTIIDHYQLDDAQKSELTRWYEDLINMMRLEGVTKEGHLQINK	-1.41
HMAVKNAQIDVQQFFYSKSGEVDFGRKIKAIQSHFTPERLQSFTAAVPPSQWVSQLQVMWDSL	-1.39
HMDLTPEEQMDLYRLLDSLPTEERTYLILHYFEERSFPEMAEILSMPEAKLKSRFYRILHRLRAHL	-2.56
HMAPETALQILEQIQINPKVTMTDLANLTGYSRRWVAQTMKQLQELNVIKRVGSTKTGYWEIIA	-0.138
HMKININEASRYELMTIGGLDAGRADMLMQYRQKREISSADELKGINGFASYDTAKLQKSFEISP	-0.0475
HMGRDWKTDLLNLATARGWGDVSYEVTGEGPDHARVYTAVAIVANQKTGTGVGPSKKEAERLAAEQAYRML	-0.142
HMNLIFFSENLSTFRKEKGWTQSELAEKLGVKANTISNYEKGISTPDYKIIAKLRELFEMPTDVLLYSNLS	-1.39
HMQQKNWIVRDGDGKIYGPFTTEQVLVQIDRGYFVGGEEVALYPGGRWIAISGAPEFYDRLLDALAMEG	-0.402
HMAVKLELYRVFKEVAETGNISAAAKNLYISQSAVSQSIKQLETALQARLFARSPRGVTLTGEGQMLYQYV	-1.44
HMDYRSMSGLQKAALLIMSVGEETAAKLFQLMHDDEIREISQTMANLGTVNATVIERLFVEFADAISS	-0.966
HMSFMFEISVIRSQYNMQDPESKTGFYNAIAKKLLEFPEKLERDNYTEAVAREYMIPETDLKNLVNSMGG	-2.17
HMEVIDQLFKIALTLFDIDKGENNSISQDLVDKVIEQMKTTAPTFIKRELSEDEVKKLRFEIQNHFNV	-0.221
HMGNTLAYSEFRQKVQEGAVKQVVLSEDRVTGELTNGDRFTANIVRDPELLKMLNDNNVKYDGKPT	0.203
HMGDWEDFWEKEARRRKLSLDYQVVRSLSRWSREYDWGEEDVEQFLSQFPEGETVKMEDVELYFE	-1.12
HMNLYHALDQQGEVYLTIPPRQSGRGKVTLMIDGRVREMDAMTDGDALKTGSKVRVTEILDENALKVEAM	0.207
